In assay [1] the target is D614G Spike (SARS-CoV-2, UniProt P0DTC2 16-1213).
Assay [2] deals with D614G Spike (SARS-CoV2, UniProt P0DTC2 16-1213).

Where only a bound is given, the exact number is not on record here.

Usually Kd stands for the equilibrium constant for the complex coming apart.

B1: RBD-R3-E1-G7 (Ab2-10) (scFv, V domains shown)
VH: EVQLVESGPGLVKPSETLSLTCTVSGGSISSYYWSWIRQPAGKGLEWIGRIYTSGSTNYNPSLKSRVTMSVDTSKNQFSLKLSSVTAADTAVYYCARDVGFGWFDRWGQGTLVTVSS
VL: NFMLTQPHSVSESPGKTVTISCTRSSGSIASNYVQWYQQRPGSSPTTVIYEDNQRPSGVPDRFSGSIDSSSNSASLTISGLTTEDEADYYCQSFDSASLWVFGGGTKLTVL
Regarding B1, in the assay with D614G Spike [1], the affinity, expressed as Kd, was 8.87 pM.

B2: S1-R3-T1-H7 (Ab12) (scFv, V domains shown)
VH: EVQLVESGPGVVSPSATLFLTCSVSGGSIRTHSWNWIRQPPGKPLEWIGFIHHSGATNKNPSLKSRVTISSDTSKNEFSLTLTSVTAADTAVYYCARGPGILSYWSRGTLVTVSS
VL: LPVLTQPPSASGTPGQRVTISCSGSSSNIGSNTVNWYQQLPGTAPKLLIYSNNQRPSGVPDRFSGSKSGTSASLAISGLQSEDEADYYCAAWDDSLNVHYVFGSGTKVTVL
The molecule B2 returned an equilibrium dissociation constant (Kd) with D614G Spike [1] of 11.2 pM.

B3: S1-RBD-R3-T1-G1 Ab (Ab_35) (scFv, V domains shown)
VH: EVQLVQSGAEVKKPGESLRISCKASGYSFTSNWIGWVRQMPGKGLEWMGSIFPGDSDTKYSPSFQGQVTISADRSISTAYLQWSGLKASDTAMYYCARESYNAYGSWGQGTLVTVSS
VL: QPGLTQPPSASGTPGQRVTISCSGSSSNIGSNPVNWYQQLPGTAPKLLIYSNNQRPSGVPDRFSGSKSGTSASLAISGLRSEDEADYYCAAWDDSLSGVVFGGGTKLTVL
On to B3, for which the equilibrium dissociation constant (Kd) in the assay with D614G Spike [2] was found to be 8.69 pM.

B4: Ab 38 (scFv, V domains shown)
VH: QVTLKESGPTLVKPTQTLTLTCTFSGFSLTTSGVSVGWIRQPPGKALEWLALIHWDDDKRYSPSLRSRLTITRDTSKNQVVLTVTDMDPADTGTYYCASFIMTVYAEYFEDWGQGTLVTVSS
VL: EIVLTQSPATLSVSPGERATLSCRASQSVSSNLAWYQQKPGQAPRLLMYDVSTRATGIPARFSGSGSGTEFSLTISSLQSEDFAVYYCQQRGAWPLTFGGGTKVEIK
Molecule B4 registered a Kd with D614G Spike [2] of 3.37 pM.

B5: RBD-R3-E1-F5 Ab (Ab_36) (scFv, V domains shown)
VH: QVQLQQSGPGLVKPSQTLSLTCAIFGDSVTSNSAAWNWIRQSPSRGLEWLGRTYYSSKWYNDYAVSVKSRVTINADTSKNQLSLQLNSVTPEDTAVYYCARGWLRLSFDPWGQGTLVTVSS
VL: NFMLTQPHSVSESPGKTVTISCTGSSGSIASNYVQWLQQRLGSAPTTVIYEDNQRPSGVPDRFSGSIDSSSNSASLTISGLKTEDEADYYCQSYDPNNHGVVFGGGTKLTVL
B5 registered an equilibrium dissociation constant (Kd) with D614G Spike [2] of 7.42 pM.

B6: S1-RBD-R3-T1-F9 Ab (Ab_39) (scFv, V domains shown)
VH: QVTLKESGPTLVKPTQTLTLTCTLSGVSLDTIGMRVSWIRQPPGKALEWLARIDWDDDKFYSTALKTRLTISKDTSKNQVVFTMTSMDPVDTATYYCARSGLLYDLDVWGRGTLVTVSS
VL: QSVVTQPPSVSGAPGQRVTISCTGSDSDIGANFVQWYQQLPGTAPKLLIWRNTNRPSGVPDRFSASKSGTSASLAITGLQAEDEADYFCQSYDSSLSAYVFGGGTKVTVL
Molecule B6 returned a dissociation constant (Kd) in the assay with D614G Spike [2] of under 1 pM.

B7: S1-RBD-R3-E1-E8 Ab (Ab 37) (scFv, V domains shown)
VH: QVQLVQSGAEVKKPGASVKVSCKASGYTFTSYGISWVRQAPGQGLEWMGWISTYNGNTNYAQKLQGRVTMTTDTSTSTAYMEVRSLRSDDTAVYYCARDVFGHFDYWGQGTLVTVSS
VL: NFMLTQPHSVSESPGKTVLISCTRSSGNIATNYVQWYQQRPGSAPTTVIYEDNQRPSGVPDRFSGSIDSSSNSASLTISGLKTEDEADYYCKSYDDGNHVFGGGTKLTVL
B7 registered a dissociation constant (Kd) with D614G Spike [2] of 8.54 pM.

Values taken from US20230374114A1 (Dana-Farber, published 2023).
